Results published in PMC9440474 (2022).
Bridge positions count the residues as written; N and C are the ends. Ends that are not written are not given here. APBA‑3 = not defined here

Tests used:
S1_SS = molecular target: T1, S1_SS (disulfide 2-9 (inferred)); test: fluorescence polarization competition
T1 chain: ACLIPSWGCGGG

S1_APBA-3* = molecular target: T2, S1_APBA-3* (linker (positions not given here) via APBA‑3; reading uncertain); test: fluorescence polarization
T2 chain: ACLIPSWGCGGG-{Dap(FAM)}

S1_SS* = molecular target: T3, S1_SS* (disulfide 2-9 (inferred)); test: fluorescence polarization
T3 chain: ACLIPSWGCGGG-{Dap(FAM)}

B1: Sortase A (protein)
chain: MKKWTNRLMTIAGVVLILVAAYLFAKPHIDNYLHDKDKDEKIEQYDKNVKEQASKDKKQQAKPQIPKDKSKVAGYIEIPDADIKEPVYPGPATPEQLNRGVSFAEENESLDDQNISIAGHTFIDRPNYQFTNLKAAKKGSMVYFKVGNETRKYKMTSIRDVKPTDVGVLDEQKGKDKQLTLITCDDYNEKTGVWEKRKIFVATEVK
Q: Which results are given for B1?
A: IC50 (S1_SS): 26 µM; Kd (S1_APBA-3*): 64 µM; Kd (S1_SS*): 5.2 µM
